This experiment deals with NuRD complex (nucleosome remodeling and deacetylase corepressor complex). As to the kind of experiment: cell-based or functional assay.

In patent US20180244738A1 one finds tumor cell senescence (SA-β-Gal+ cells) in transfected MCF-7 and E0771 cells, 3 days data, which are given here for one substance.

In turn, “full-length SALL1, wild-type (transfected, pcDNA3.1-SALL1) (from UniProt Q9NSC2 1-1324)” returned a tumor cell senescence (SA-β-Gal+ cells) in transfected MCF-7 and E0771 cells, 3 days of 40%.
